The text below walks through data of article PMC4945409.

The term stoichiometry N denotes the number of molecules, sites or subunits per partner or assembly.

This experiment deals with wild-type KDPG aldolase scaffold (1wa3). Description: SEC. (In general: Size exclusion chromatography separates by hydrodynamic size, large species first.)

“wild-type KDPG aldolase scaffold (1wa3) (enzyme)” had a stoichiometry N of 3.
